Source: patent US20250186602A1, “HUMANIZED ANTIBODY THAT BONDS TO EVA1 PROTEIN OR FUNCTIONAL FRAGMENT THEREOF, ANTIBODY-DRUG CONJUGATE AND CHIMERIC ANTIGEN RECEPTOR” (CURED INC., priority 2022, published 2025)
Numbering of substitutions follows the chain as printed. “Also recorded” adds a separate entry of the source.

T1: hEva1-mouse Fc (human, UniProt O60487 27-154, limits assumed)
T1 construct: SPR analyte; the '1' is probably the first concentration (1 nM); also called hEva1-mouse Fc1 (so in the source); not shown: mouse Fc
T1 sequence: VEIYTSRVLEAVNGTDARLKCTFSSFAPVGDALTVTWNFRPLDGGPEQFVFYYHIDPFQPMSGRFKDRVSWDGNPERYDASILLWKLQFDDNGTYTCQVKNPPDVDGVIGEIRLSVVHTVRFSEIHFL

B1: chimeric human IgG1 (constant regions of the B2E5-48 mouse antibody replaced by those of human IgG type 1) (antibody, V domains shown)
VH: QVQLQQPGAELVKPGASVKLSCKASGYTFTNYWMHWVKLRPGQGFEWIGEINPTNGGTDYNEKFKRKATLTVDKSSSTAYMQLSSLTSEDSAVYYCTIYTTALDYWGQGTTLTVSS
VL: QIVLTQSPALMSASPGERVTLTCSASSSVGYMYWYQQKPGSSPKPWIYVTSNLASGVPARFSGSGSGTSYSLTISSMEAEDAATYYCQQWSSNPPTFGAGTKLELK
notes: Mouse B2E5-48 variable regions on human IgG1 constant regions; The same construct was made in HEK293T cells and in CHO cells and both preparations were measured; also called Chimeric antibody (CHO); Chimeric antibody (293T)
B2: 125aa: mouse antibody-derived Eval-CAR-T with spacer length 125aa (SEQ ID NO: 62) (protein)
chain: EPKSSDKTHTSPPCPAPEFLGGPSVFLFPPKPKDTLMISRTPEVTCVVVDVSQEDPEVQFNWYVDGVEVHNAKTKPREEQFNSTYRVVSVLTVLHQDWLNGKEYKCKVSNKGLPSSIEKTISKAK
modifications: Hinge region:125aa
B3: H3-L2: humanized B2E5-48 IgG1, VH H3 (SEQ ID NO: 16), VL L2 (SEQ ID NO: 7) (antibody, V domains shown)
VH: QVQLVQSGSELKKPGASVKVSCKASGYTFTNYWMHWVRQAPGQGLEWIGEINPTNGGTDYNEGFTGRFVLSVDKSSSTAYLQISSLKAEDTAVYYCTIYTTALDYWGQGTLVTVSS
VL: EIVLTQSPATLSLSPGERATLSCRASSSVGYMYWYQQKPGQAPRPLIYVTSNRATGIPARFSGSGSGTDYTLTISSLEPEDFAVYYCQQWSSNPPTFGQGTKLEIK
modifications: Variable Region of Heavy Chain 3 (Humanized B2E5-48); Variable Region of Light Chain 2 (Humanized B2E5-48)
B4: H3-L3: humanized B2E5-48 IgG1, VH H3 (SEQ ID NO: 16), VL L3 (SEQ ID NO: 10) (antibody, V domains shown)
VH: B3 VH
VL: QIQLTQSPSFLSASVGDRVTITCRASSSVGYMYWYQQKPGKAPKPLIYVTSNLASGVPSRFSGSGSGTEYTLTISSLQPEDFATYYCQQWSSNPPTFGQGTKLEIK
modifications: Variable Region of Heavy Chain 3 (Humanized B2E5-48); Variable Region of Light Chain 3 (Humanized B2E5-48)
B5: H3-L4: humanized B2E5-48 IgG1, VH H3 (SEQ ID NO: 16), VL L4 (SEQ ID NO: 8) (antibody, V domains shown)
VH: B3 VH
VL: B4 VL with Q1D
modifications: Variable Region of Heavy Chain 3 (Humanized B2E5-48); Variable Region of Light Chain 4 (Humanized B2E5-48)
B6: H4-L2: humanized B2E5-48 IgG1, VH H4 (SEQ ID NO: 14), VL L2 (SEQ ID NO: 7) (antibody, V domains shown)
VH: B3 VH with I48M, L70F, S76V
VL: B3 VL
modifications: Variable Region of Heavy Chain 4 (Humanized B2E5-48); Variable Region of Light Chain 2 (Humanized B2E5-48)
B7: H4-L3: humanized B2E5-48 IgG1, VH H4 (SEQ ID NO: 14), VL L3 (SEQ ID NO: 10) (antibody, V domains shown)
VH: B3 VH with I48M, L70F, S76V
VL: B4 VL
modifications: Variable Region of Heavy Chain 4 (Humanized B2E5-48); Variable Region of Light Chain 3 (Humanized B2E5-48)
B8: H4-L4: humanized B2E5-48 IgG1, VH H4 (SEQ ID NO: 14), VL L4 (SEQ ID NO: 8) (antibody, V domains shown)
VH: B3 VH with I48M, L70F, S76V
VL: B4 VL with Q1D
modifications: Variable Region of Heavy Chain 4 (Humanized B2E5-48); Variable Region of Light Chain 4 (Humanized B2E5-48)
B9: Chimeric antibody (CHO): chimeric human IgG1 obtained by substituting the constant regions of the B2E5-48 mouse antibody with those of human IgG type 1; control (antibody, V domains shown)
VH: B1 VH
VL: B1 VL
B10: Chimeric antibody (293T): chimeric human IgG1 obtained by substituting the constant regions of the B2E5-48 mouse antibody with those of human IgG type 1; control (antibody, V domains shown)
VH: B1 VH
VL: B1 VL

What was measured:
Eval-positive HuCCT-1 = experiment: Amplification of Eval-CAR-T after antigen stimulation (co-culture with irradiated Eval-positive HuCCT-1); type: cell-based, human
Description: Eval-positive HuCCT-1, was irradiated with a radioactive ray of 100 Gy, and was co-cultured with the CAR-Ts in 1:1, and the amplification efficiencies of these were analyzed. In FIG. 3J, amplification efficiencies in time series are shown. In FIG. 3K, the amplification factors at Day 4 were plotted.
In the same manner as described above, Eval-positive HuCCT-1, was irradiated with a radioactive ray of 100 Gy, and was co-cultured with the CAR-T-cells in 1:1. Then, 50 U/ml of IL-2 was added once every three days, at Day 1, 4, and 7, followed by culturing. In FIG. 3L, the respective amplification efficiencies in time series are shown. In FIG. 3M, the amplification factors at Day 18 were plotted.
In the same manner as described above, Eval-positive HuCCT-1, was irradiated with a radioactive ray of 100 Gy, and was co-cultured with hEva1 CAR-T-cells in 1:1.
In the same manner as described above, Eval-positive HuCCT-1, was irradiated with a radioactive ray of 100 Gy, and was co-cultured with hEva1-CAR-Ts in 1:1.

hEva1-mouse Fc [1] = biological target: T1, hEva1-mouse Fc; experiment: SPR (BiaCore T200), single-cycle kinetics; antibody captured by anti-human IgG on CM5 chip, hEva1-mouse Fc as analyte; antibody made in CHO cells
hEva1-mouse Fc [2] = biological target: T1, hEva1-mouse Fc; experiment: SPR (BiaCore T200), single-cycle kinetics; antibody captured by anti-human IgG on CM5 chip, hEva1-mouse Fc as analyte; antibody made in HEK293T cells
Description: (§1) The dissociation constants and association constants of the humanized antibodies and the like were analyzed by using surface plasmon resonance (SPR, product name: BiaCore T200 (manufactured by GE healthcare)).
Specifically, first, human IgG capture antibodies were immobilized on a CM5 chip by an amine coupling method. […] Then, the kinetics analysis on the anti-Eval antibody and hEva1 was conducted by a single-cycle method using the following measurement conditions.

[3] = system: various tumor cell lines (Eval positive and Eval negative); experiment: Cytokine production of Eval-CAR-T co-cultured with tumor cell lines (intracellular staining, flow cytometry); type: cell-based, human; conditions: co-culture 1:1, 6 hours, Day 17 cells
Description: Next, the cytokine production capacity of the Eval-CAR-T using the anti-human Eval mouse antibody sequence was analyzed. Specifically, CAR-T prepared as described above was cultured until day 17, and the cells were co-cultured with various main cell lines in 1:1. After co-culturing for 6 hours, immobilization and intracellular staining (BD cytofix/cytoperm buffer) were conducted to stain the cells with IFN-gamma (IFN-γ).
The experiment was conducted by using the above-described Eval-CAR-Ts at Day 17. Specifically, the Eval-CAR-Ts were co-cultured with tumor cell lines in 1:1, and the cells were immobilized and stained in the same methods as described above after 6 hours, and intracellular IFN-gamma and IL-2 were evaluated with flow cytometry.
(§2) The experiment was conducted by using hEva1-CAR-Ts at Day 17. Specifically, hEva1-CAR-Ts were co-cultured with tumor cell lines in 1:1, and the cells were immobilized and stained in the same manner as described above after 6 hours, and intracellular IFN-gamma and IL-2 were evaluated with flow cytometry. These figures show the percentages at which the cytokine was positive among the CD8 positive cells.
as §2, with “using the above-described” for “using”, “Specifically, the” for “Specifically,”, “after […]” for “after 6”, “which each” for “which the”

hEva1-mouse Fc [4] = experiment: Surface plasmon resonance kinetics analysis (BiaCore T200, single-cycle); type: binding, human; conditions: SPR, antibody captured 5 nM, analyte hEva1-mouse Fc 1-250 nM, HBS-EP+ pH 7.4
Description: as §1
Specifically, first, human IgG capture antibodies were immobilized on a CM5 chip by an amine coupling method. This immobilization was conducted in both reference cells and active cells. Then, the kinetics analysis on the anti-Eval antibody and hEva1 was conducted by a single-cycle method using the following measurement conditions.
• Sample compartment temperature: 10° C. • Running buffer: HBS-EP+buffer, pH 7.4 • Capturing molecule: Human IgG antibody, reference & active cells • Ligand: Various antibodies 5 nM, active cells only • Analyte: hEva1-mouse Fc1, 5, 25, 125, 250 nM, reference & active cells • Regeneration buffer: 3M MgCl2, reference & active cells • 3 cycles of Blanks (Analyte zero concentration)

| Molecule | ka (hEva1-mouse Fc [4]) | kd (hEva1-mouse Fc [4]) | also measured |
| --- | --- | --- | --- |
| 15aa: mouse antibody-derived Eval-CAR-T with spacer length 15aa (SEQ ID NO: 59) (EPKSSDKTHTSPPCP; Hinge region:15aa) | – | – | amplification efficiency after Eval stimulation (Eval-positive HuCCT-1; 50 U/ml IL-2 at Day 1, 4, 7, co-culture 1:1 with HuCCT-1 irradiated 100 Gy): cell amplifications tended to be better; also recorded: most excellent in cell growth; amplification efficiency after Eval stimulation (Eval-positive HuCCT-1; absence of IL-2, co-culture 1:1 with HuCCT-1 irradiated 100 Gy): higher cell amplifications |
| B1 | – | – | Kd (hEva1-mouse Fc [1]): 445 nM; koff (hEva1-mouse Fc [1]): 0.00845 s⁻¹; kon (hEva1-mouse Fc [1]): 19000 M⁻¹ s⁻¹; Kd (hEva1-mouse Fc [2]): 482 nM; koff (hEva1-mouse Fc [2]): 0.00947 s⁻¹; kon (hEva1-mouse Fc [2]): 19600 M⁻¹ s⁻¹ |
| B2 | – | – | cytokine production (intracellular IFN-gamma and IL-2) [3]: excellent cytokine productions |
| B3 | 16770 M⁻¹ s⁻¹ | 0.0132 s⁻¹ | – |
| B4 | 15010 M⁻¹ s⁻¹ | 0.01253 s⁻¹ | – |
| B5 | 15800 M⁻¹ s⁻¹ | 0.0138 s⁻¹ | – |
| B6 | 18980 M⁻¹ s⁻¹ | 0.01457 s⁻¹ | – |
| B7 | 15480 M⁻¹ s⁻¹ | 0.01357 s⁻¹ | – |
| B8 | 15340 M⁻¹ s⁻¹ | 0.01525 s⁻¹ | – |
| B9 | 19010 M⁻¹ s⁻¹ | 0.008447 s⁻¹ | – |
| B10 | 19640 M⁻¹ s⁻¹ | 0.00947 s⁻¹ | – |
